Data on two substances can be found in paper PMC2120799.

In this test the target is cdk2 (NIH-3T3 cells) (mouse (endogenous in NIH-3T3)) (UniProt P97377). The test is described as follows: co-IP.

As for “p21 (NIH-3T3 cells) (from UniProt P39689 1-159) (natural protein)”, the stoichiometry N (mol per mol cdk2) was under 1.

“p27 (NIH-3T3 cells) (from UniProt P46414 1-197) (natural protein)” gave a stoichiometry N (mol per mol cdk2) of under 1.
